pIC50: −log10 of the molar value.
Experiments:
[1] = target: tau monoclonal antibody (Example 5, FIG. 5); experiment: competitive ELISA
[2] = target: tau monoclonal antibody (Example 5, FIG. 5); experiment: competitive ELISA; printed as apparent affinity = antigen concentration for 50% competition with prototype tau type IA

fold decrease in affinity against prototype tau type IA (SEQ ID NO:1) [1]	pIC50 [2]	Substance
1000 fold		deletion mutant SEQ ID NO: 21 (268-333,R4;del 239-267) (from UniProt O02828 288-353)
	8.00	prototype tau type IA (SEQ ID NO:1) (239-333,R4) (from UniProt O02828 259-353)

Source: patent US20060167227A1
